Test results from article PMC6341664, “Role of the highly conserved G68 residue in the yeast phosphorelay protein Ypd1: implications for interactions between histidine phosphotransfer (HPt) and response regulator proteins” (BMC Biochemistry, 2019).

Experiments:
Experiment in all cases: other fluorescence titration; 5-IAF-labelled Ypd1-T12C (30 pmol in 1.9 mL) titrated with Sln1-R1, 10 nM to 6 uM; 23.0 °C; 20 mM Tris pH 8.0, 50 mM NaCl, 10 mM MgCl2; excitation 492 nm, emission 515 nm; quadratic fit; 'observed' Kd, three replicate titrations
Conditions in all cases: both partners purified
[1] = target: T1, Ypd1-T12C~F (fluorescein-labelled Ypd1-T12C) (S. cerevisiae, UniProt Q07688 3-167, T12C, 5-iodoacetamidofluorescein (5-IAF) on the cysteine introduced at position 12 (70-90% of the molecules labelled))
T1 construct: Ypd1, histidine phosphotransfer (HPt) protein of Saccharomyces cerevisiae; YPD1 gene in pET21a(+), T12C; also called WT; 5-IAF labelled Ypd1
T1 sequence: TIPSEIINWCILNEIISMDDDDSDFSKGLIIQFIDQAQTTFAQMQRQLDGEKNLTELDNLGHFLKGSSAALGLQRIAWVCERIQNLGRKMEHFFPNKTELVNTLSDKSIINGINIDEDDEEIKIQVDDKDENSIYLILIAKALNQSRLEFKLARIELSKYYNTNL

[2] = target: T2, Ypd1-T12C-G68V, fluorescein-labelled (S. cerevisiae, UniProt Q07688 3-167, T12C | G68V, 5-iodoacetamidofluorescein (5-IAF) on the cysteine introduced at position 12)
T2 construct: Ypd1, HPt protein of Saccharomyces cerevisiae; double mutant made on pET-Ypd1-T12C; also called Ypd1-G68V
T2 sequence: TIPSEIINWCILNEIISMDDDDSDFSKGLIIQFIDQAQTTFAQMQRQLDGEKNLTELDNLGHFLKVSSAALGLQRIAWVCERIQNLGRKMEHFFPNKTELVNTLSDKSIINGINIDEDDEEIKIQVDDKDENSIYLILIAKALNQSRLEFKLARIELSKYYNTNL

[3] = target: T3, Ypd1-T12C-G68L, fluorescein-labelled (S. cerevisiae, UniProt Q07688 3-167, T12C | G68L, 5-iodoacetamidofluorescein (5-IAF) on the cysteine introduced at position 12)
T3 construct: Ypd1, HPt protein of Saccharomyces cerevisiae; double mutant made on pET-Ypd1-T12C; also called Ypd1-G68L
T3 sequence: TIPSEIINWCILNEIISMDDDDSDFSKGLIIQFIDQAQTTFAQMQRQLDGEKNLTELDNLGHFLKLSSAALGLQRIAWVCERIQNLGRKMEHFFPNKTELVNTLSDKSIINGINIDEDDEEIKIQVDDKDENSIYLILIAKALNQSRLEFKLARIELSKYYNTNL

[4] = target: T4, Ypd1-T12C-G68E, fluorescein-labelled (S. cerevisiae, UniProt Q07688 3-167, T12C | G68E, 5-iodoacetamidofluorescein (5-IAF) on the cysteine introduced at position 12)
T4 construct: Ypd1, HPt protein of Saccharomyces cerevisiae; double mutant made on pET-Ypd1-T12C; also called Ypd1-G68E
T4 sequence: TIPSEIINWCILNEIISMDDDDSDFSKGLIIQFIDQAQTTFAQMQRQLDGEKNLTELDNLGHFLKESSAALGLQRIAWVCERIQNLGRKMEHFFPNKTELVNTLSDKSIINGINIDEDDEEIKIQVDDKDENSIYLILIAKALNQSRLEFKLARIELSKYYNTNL

[5] = target: T5, Ypd1-T12C-G68Q, fluorescein-labelled (S. cerevisiae, UniProt Q07688 1-167, T12C | G68Q, 5-iodoacetamidofluorescein (5-IAF) on the cysteine introduced at position 12)
T5 construct: Ypd1, HPt protein of Saccharomyces cerevisiae; double mutant made on pET-Ypd1-T12C; PDB 6M7W is the single mutant Ypd1-G68Q (from pUC-Ypd1, without T12C); also called Ypd1-G68Q
T5 sequence: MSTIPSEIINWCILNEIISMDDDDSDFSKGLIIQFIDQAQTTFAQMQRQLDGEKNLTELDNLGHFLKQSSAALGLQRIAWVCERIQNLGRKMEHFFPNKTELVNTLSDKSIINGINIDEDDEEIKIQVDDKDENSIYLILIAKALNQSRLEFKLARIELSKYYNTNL

Kd [1]: 940 nM | Kd [2]: 2900 nM | Kd [3]: 1300 nM | Kd [4]: 500 nM | Kd [5]: 600 nM
B1: Sln1-R1 (receiver domain of Sln1) (domain or fragment, S. cerevisiae)
chain: TSVKILVVEDNHVNQEVIKRMLNLEGIENIELACDGQEAFDKVKELTSKGENYNMIFMDVQMPKVDGLLSTKMIRRDLGYTSPIVALTAFADDSNIKECLESGMNGFLSKPIKRPKLKTILTEFCAAYQGKKNNK
notes: Receiver domain (R1) of the hybrid sensor histidine kinase Sln1 of Saccharomyces cerevisiae, in the vector pFJS16; neither is said here; also called receiver domain from Sln1
